Tests used:
Test in all cases: SPR
[1] = molecular target: soluble CCR8 analogue BM1
[2] = molecular target: soluble CCR8 analogue BM7
[3] = molecular target: soluble CCR8 analogue BM5
[4] = molecular target: soluble CCR8 analogue BM3
[5] = molecular target: soluble CCR8 analogue BM6

B1: mAb1 in full length human IgG1 format (antibody, V domains shown)
VH: QSVEESGGRLVTPGTPLTLTCTVSGFSLSNYAMIWVRQAPGEGLEWVGTISLGGYTYYANWAKGRFTISKTSTTVDLKISSPTTEDTATYFCARARWSTDSAIYTYAFDPWGPGTLVTVSS
VL: AYDMTQTPASVEVAVGGTVTIKCQASQSISSYLSWYQQKPGQRPELLIYKASTLASGVSSRFKGSGSGTQFTLTISDLEAADAATYYCQQGYTSSNIDNIFGGGTEVVVK
- Kd [1]: 267 nM
- Kd [2]: 252 nM
- Kd [3]: 629 nM
- Kd [4]: 154 nM
- Kd [5]: 552 nM
